In experiment [1] the target is recombinant NOTCH3 protein (Homo sapiens, UniProt Q9UM47). In words: SPR. (In general: In SPR one partner is held on a chip, and binding of the other changes the refractive index at the surface.)
Experiment [2] addresses NOTCH3 on the surface of cells expressing NOTCH3 (Homo sapiens, UniProt Q9UM47). Put plainly: flow cytometry on cells. A general note: Flow cytometry measures light scatter and fluorescence of single cells or particles in a stream.

The text below walks through data of PMC5102827 (Oncogene, 2016).

B1: MOR20358 anti-NOTCH3 NRR antibody (antibody, V domains shown)
VH: QVQLVQSGAEVKKPGSSVKVSCKASGGTFRTYAMHWVRQAPGQGLEWMGGIVPYHGITDYAQKFQGRVTITADESTSTAYMELSSLRSEDTAVYYCARDDYSTYAFAYWGQGTLVTVSS
VL: DIQMTQSPSSLSASVGDRVTITCRASQSIASYLAWYQQKPGKAPKLLIYDASNLQSGVPSRFSGSGSGTDFTLTISSLQPEDFATYYCQQAYKTPYTFGQGTKVEIK
In general, Kd refers to the free concentration of one partner at which half of the binding sites on the other are occupied at equilibrium, for simple one-to-one binding. For orientation: EC50 means the concentration giving half of the maximal effect. Read a low EC50 as a more potent agent. In the case of B1, the dissociation constant (Kd) in experiment [1] was determined as 0.6 nM. This molecule also displayed an EC50 in experiment [2] of 0.14 nM.
